By IC50 is commonly meant the concentration that gives 50% inhibition.

This test concerns the target human MASP-2 (Homo sapiens (Human), UniProt O00187). Description: C3 assay: inhibition of lectin pathway C3 convertase formation in human serum (scFv clones). The following applies: read-out: 1% human serum C3 assay (IC50 nM), scFv format. The class given is biochemical.

human MASP-2, sequence (O00187 whole entry, looked up): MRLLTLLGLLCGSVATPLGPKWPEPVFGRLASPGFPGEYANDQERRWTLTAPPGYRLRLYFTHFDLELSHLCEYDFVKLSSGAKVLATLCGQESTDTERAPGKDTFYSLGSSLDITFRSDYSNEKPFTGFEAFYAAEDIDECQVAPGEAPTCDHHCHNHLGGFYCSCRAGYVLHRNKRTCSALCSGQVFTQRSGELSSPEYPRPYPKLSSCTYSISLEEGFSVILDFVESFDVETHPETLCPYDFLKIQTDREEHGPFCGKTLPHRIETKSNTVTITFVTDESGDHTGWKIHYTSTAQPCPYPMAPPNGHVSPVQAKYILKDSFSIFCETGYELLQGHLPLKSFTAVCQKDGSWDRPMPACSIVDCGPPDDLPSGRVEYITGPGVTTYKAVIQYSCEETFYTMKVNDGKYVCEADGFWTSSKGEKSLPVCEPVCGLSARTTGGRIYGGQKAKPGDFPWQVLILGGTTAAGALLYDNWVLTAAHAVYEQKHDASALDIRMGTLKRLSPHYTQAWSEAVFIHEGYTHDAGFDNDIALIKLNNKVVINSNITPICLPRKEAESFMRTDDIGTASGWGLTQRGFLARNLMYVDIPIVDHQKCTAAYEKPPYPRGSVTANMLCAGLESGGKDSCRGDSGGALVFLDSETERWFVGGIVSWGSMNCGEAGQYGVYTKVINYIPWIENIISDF
Description: A functional assay that measures inhibition of lectin pathway C3 convertase formation was used to evaluate the “blocking activity” of the MASP-2 scFv candidate clones. MASP-2 serine protease activity is required in order to generate the two protein components (C4b, C2a) that comprise the lectin pathway C3 convertase. Therefore, a MASP-2 scFv that inhibits MASP-2 functional activity (i.e., a blocking MASP-2 scFv), will inhibit de novo formation of lectin pathway C3 convertase. […]
The scFv clones were each tested in triplicate at the concentration of 2 μg/mL. […] C3c formation was monitored in the presence and absence of the scFv/IgG clones. […]
Normal human serum was diluted to 0.5% in CaMgGVB buffer, and scFv clones or the OMS100 Fab2 positive control were added in triplicates at 0.01 μg/mL; 1 μg/mL (only OMS100 control) and 10 μg/mL to this buffer and preincubated 45 minutes on ice before addition to the blocked ELISA plate. […] C3b deposition was detected with a Rabbit α-Mouse C3c antibody followed by Goat α-Rabbit H1RP. […] The background was determined by carrying out the same assay except that the wells were mannan-free. […]

B1: 17N16mc: mother scFv clone, fully human MASP-2 antibody from phage display (TABLE 8, "all in scFv format") (protein)
scFv: QVQLQQSGPGLVKPSQTLSLTCAISGDSVSSTSAAWNWIRQSPSRGLEWLGRTYYRSKWYNDYAVSVKSRITINPDTSKNQFSLQLNSVTPEDTAVYYCARDPFGVPFDIWGQGTMVTVSSKLSGSASAPKLEEGEFSEARVSYVLTQPPSVSVAPGQTARITCGGNNIGSKNVHWYQQKPGQAPVLVVYDDSDRPSGIPERFSGSNSGNTATLTVSRVEAGDEADYYCQVWDTTTDHVVFGGGTKLTVLAAAGSEQKLISEEDLNSHHHHHH
Regarding B1, the half-maximal inhibitory concentration (IC50) stood at 68 nM.

B2: 17D20mc: mother scFv clone, fully human MASP-2 antibody from phage display (TABLE 8, "all in scFv format") (protein)
scFv: QVTLKESGPVLVKPTETLTLTCTVSGFSLSRGKMGVSWIRQPPGKALEWLAHIFSSDEKSYRTSLKSRLTISKDTSKNQVVLTMTNMDPVDTATYYCARIRAGGIDYWGQGTLVTVSSKLSGSASAPKLEEGEFSEARVQPVLTQPPSVSVSPGQTASITCSGDKLGDKFAYWYQQKPGHSPVLVIYQDNKRPSGIPGRFSGSNSGNTATLTISGTQAMDEADYYCQAWDSSTAVFGTGTKVTVLAAAGSEQKLISEEDLNSHHHHHH
For B2, the half-inhibitory concentration (IC50) came out at 38 nM.

For the origin of these results see patent US12351648B2, “Methods of inhibiting MASP-2 for the treatment and/or prevention of coronavirus-induced acute respiratory distress syndrome” (priority 2020, dated 2025).
